Values of other authors as cited in publication PMC4082410.

Assays:
Experiment in all cases: kinetics
[1] = biological target: quinone MADH (Paracoccus denitrificans) (UniProt P22619)
[2] = biological target: quinol MADH (Paracoccus denitrificans) (UniProt P22619)
[3] = biological target: preMADH (Paracoccus denitrificans) (UniProt P22619)

Substance	Kd [1] [µM]	Kd [2] [µM]	Kd [3] [µM]
diferrous MauG (from UniProt Q51658)	10.1	–	–
bis-Fe(IV) MauG (from UniProt Q51658)	–	11.2	< 1.5
